This note sets out measurements from patent publication CN106554420A (SHANGHAI UNION BIOPHARM CO LTD; LI JUN, dated 2017).

The target of experiment [1] is T1, huPCSK9-His，重组人PCSK9胞外区His融合蛋白 (human, UniProt Q8NBP7 31-692, biotin-labelled in the ELISA and in the LDL-R blocking assay (sites not given)). The experiment can be described thus: cell-based or functional assay.
The target in experiment [2] is T2, cyPCSK9，猕猴PCSK9胞外区His融合蛋白 (猕猴 (macaque), UniProt A8T662 31-692, biotin-labelled in the ELISA (sites not given)).
T2 construct: Bought (Novoprotein CA87); The printed entry includes the His tag
T2 sequence (A8T662 other isoform, or with tags, fused parts or gaps limits assumed, form in doubt): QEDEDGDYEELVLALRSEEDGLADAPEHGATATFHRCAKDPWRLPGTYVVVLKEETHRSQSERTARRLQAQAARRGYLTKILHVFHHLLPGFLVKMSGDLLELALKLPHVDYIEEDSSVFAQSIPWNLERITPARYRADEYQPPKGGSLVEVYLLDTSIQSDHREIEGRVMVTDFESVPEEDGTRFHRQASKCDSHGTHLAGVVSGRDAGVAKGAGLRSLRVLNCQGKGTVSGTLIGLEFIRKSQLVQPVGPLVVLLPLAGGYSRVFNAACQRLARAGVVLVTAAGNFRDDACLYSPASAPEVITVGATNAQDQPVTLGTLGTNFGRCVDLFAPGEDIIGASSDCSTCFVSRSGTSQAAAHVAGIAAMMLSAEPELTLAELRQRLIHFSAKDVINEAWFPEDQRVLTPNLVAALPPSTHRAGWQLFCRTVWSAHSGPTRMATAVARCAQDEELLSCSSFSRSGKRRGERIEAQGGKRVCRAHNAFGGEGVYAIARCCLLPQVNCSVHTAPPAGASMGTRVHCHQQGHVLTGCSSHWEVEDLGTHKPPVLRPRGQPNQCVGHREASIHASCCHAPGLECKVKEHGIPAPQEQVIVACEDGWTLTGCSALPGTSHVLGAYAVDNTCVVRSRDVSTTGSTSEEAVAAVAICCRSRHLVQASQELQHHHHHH
The experiment can be described thus: ELISA, biotin-labelled PCSK9-His captured on neutravidin-coated plate.

Experiment [3] concerns the target T1, huPCSK9-His，重组人PCSK9胞外区His融合蛋白. Described as above.
Experiment [4] deals with T2, cyPCSK9，猕猴PCSK9胞外区His融合蛋白. The experiment can be described thus: BLI (ForteBio), chF3-9 captured on anti-human Fc (AHC) sensor, PCSK9 in solution, 1:1 global fit.
Experiment [5] deals with T1, huPCSK9-His，重组人PCSK9胞外区His融合蛋白. The description is as above.

T1 sequence (Q8NBP7 other isoform, or with tags, fused parts or gaps limits assumed): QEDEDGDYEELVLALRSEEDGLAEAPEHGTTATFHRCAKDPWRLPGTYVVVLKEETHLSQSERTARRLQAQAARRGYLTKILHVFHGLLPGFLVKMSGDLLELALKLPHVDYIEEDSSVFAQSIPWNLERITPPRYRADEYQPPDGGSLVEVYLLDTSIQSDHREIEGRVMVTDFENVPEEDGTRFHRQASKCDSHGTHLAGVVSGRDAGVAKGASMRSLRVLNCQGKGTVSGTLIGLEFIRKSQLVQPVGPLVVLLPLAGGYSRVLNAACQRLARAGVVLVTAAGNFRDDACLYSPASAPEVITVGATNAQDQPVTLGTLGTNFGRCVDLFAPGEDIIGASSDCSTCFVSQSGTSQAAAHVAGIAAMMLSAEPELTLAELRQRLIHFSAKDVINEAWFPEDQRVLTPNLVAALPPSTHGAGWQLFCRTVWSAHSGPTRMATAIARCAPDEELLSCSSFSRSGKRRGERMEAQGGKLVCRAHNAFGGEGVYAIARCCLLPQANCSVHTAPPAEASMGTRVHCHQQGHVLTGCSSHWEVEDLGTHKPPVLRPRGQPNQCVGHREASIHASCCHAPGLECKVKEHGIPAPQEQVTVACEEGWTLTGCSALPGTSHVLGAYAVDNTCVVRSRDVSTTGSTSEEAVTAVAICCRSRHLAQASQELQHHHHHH

B1: 鼠单抗mF3-9 (antibody, V domains shown)
VH: QVQLQQSGAELVRPGSSVKISCKASGYSFSSYWMNWVKQRPGQGLEWIGQIYPGDGDTNFNGKFKGKATLTADKSSSTAYMQLSSLTSEDSAVYFCGNYDYDGEIPYWGQGTTLTVSS
VL: DIFLTQSPAILSVSPGERVNFSCRASQTIGTSLHWYQQRTNGSPRLLIKYASESISGIPSRFSGSGSGTEFTLRINSVESEDIADYYCQQSSKWPLTFGQGTKVEIK
notes: Mouse hybridoma monoclonal antibody; also called 鼠单抗F3-9; 抗体F3-9
Regarding B1, the “有效活性浓度(EC50), antagonism of PCSK9 inhibition of LDL uptake by HepG2 cells” value in experiment [1] was 10 nM. In addition, the EC50 in experiment [2] was 0.62 nM; in experiment [3], 0.68 nM.

B2: 人-鼠嵌合型F3-9抗体(chF3-9) (antibody, IgG2, V domains shown)
VH: QVQLQQSGAELVRPGSSVKISCKASGYSFSSYWMNWVKQRPGQGLEWIGQIYPGDGDTNFNGKFKGKATLTADKSSSTAYMQLSSLTSEDSAVYFCGNYDYDGEIPYWGQGTTLTVSS
VL: DIFLTQSPAILSVSPGERVNFSCRASQTIGTSLHWYQQRTNGSPRLLIKYASESISGIPSRFSGSGSGTEFTLRINSVESEDIADYYCQQSSKWPLTFGQGTKVEIK
notes: also called F3-9嵌合抗体; 嵌合PCSK9抗体F3-9
As to B2, the Kd amounted to 1.27 nM in experiment [4] and 0.42 nM in experiment [5].
